In patent US7700107B2, “Synthetic immunogenic but non-amyloidogenic peptides homologous to amyloid β for induction of an immune response to amyloid β and amyloid deposits” (New York University, priority 2000, dated 2010):

Tests used:
[1] = Thioflavin T fluorometric assay of amyloid fibril formation in vitro; format: physicochemical; details: incubation at 37° C., up to at least 15 days
Method: Studies of amyloid fibril formation in vitro can be performed using published protocols from the laboratory of the present inventors (Castaño et al., 1995; Wisniewski et al., 1991; Wisniewski et al., 1993 and Wisniewski et al., 1994). […] In vitro fibrillogenesis was evaluated by a fluorometric assay based on the fluorescence emission by thioflavine T, as previously described by the laboratory of the present inventors (Soto et al., 1998 and Jameson et al., 1998). Thioflavine T binds specifically to amyloid and this binding procedures a shift in its emission spectrum and a fluorescent enhancement proportional to the amount of amyloid formed (LeVine et al. 1993).
(§1) The experiments were performed as described in Example 1.

[2] = Secondary structure by circular dichroism (CD); format: physicochemical
Method: Secondary structure (α-helix, β-sheet, and random coil) of the peptides was evaluated by circular dichroism (CD) as described previously (Soto et al., 1998 and Soto et al., 1996). Results are expressed as molar ellipticity in units of deg cm^2 dmol^−1, and the data was analyzed by the Lincomb and CCA algorithms (Perczel et al., 1992) to obtain the percentages of different types of secondary structure.
The experimental procedure for circular dichroism is performed according to Golabek et al., (1996) and Soto et al. (1996 and 1998) as follows: CD spectra of solutions containing synthetic peptides (1-5 μM in 300 μl of 10 mM sodium phosphate, pH 7.2) is recorded in a Jasco J-720 spectropolarimeter at 25° C. using a 0.1 cm path-length cell with double distilled, deionized water and TFE (spectroscopy grade) being used as solvents. Calibration of the instrument is performed with an aqueous solution of d-(+)-10-camphorsulfonic acid. Spectra is recorded at 1 nm intervals over the wavelength range 180 to 260 nm and buffer spectra obtained under identical conditions is subtracted.

[3] = system: human neuroblastoma cell line (SK—N—SH); test: Neurotoxicity, MTT assay; format: cell-based; details: for Toxicity to SK—N—SH cells (MTT): 2 and 6 days, vs vehicle; for Aggregates visible under the microscope in culture wells: during the incubation period, 10-100 μM
Method: Briefly, cells were plated at 10,000 cells/100 μl culture medium per well in flat bottom, 96 well microtiter plates. The cells were allowed to attach to the plate overnight in an incubator (37° C., 5.0% CO2), and then 10 μl of freshly prepared peptide solution (in nanopure H2O) was added. […] Subsequent steps were as described in the assay protocol.
Data Analysis: The cell culture data was analyzed by one-way ANOVA, followed by a Dunnett's test for post hoc analysis (GraphPad Prism 3.0). An unbiased stereological image analysis system (Bioquant, R&M Biometrics Inc., Nashville, Tenn.) was used to determine the amyloid burden in 6E10 stained brain sections. The data for the amyloid burden and the levels of soluble Aβ within the brain were analyzed by a Student's t-test, two-tailed.
as §1
Data Analysis: The cell culture data was analyzed by one-way ANOVA, followed by a Newman Keuls' test for post hoc analysis (GraphPad Prism 3.0).

[4] = Solubility of freshly prepared peptide solution (in nanopure H2O); format: physicochemical; details: at 100 μM

Substance | Fibril formation (thioflavin T) ([1]; Example 2, FIG. 5) | Fibril formation (thioflavin T) ([1]; Example 1, FIG. 1) | alpha (secondary structure by CD) ([2]; Time 0 hr) [%] | beta-sheet (secondary structure by CD) ([2]; Time 0 hr) [%] | random (secondary structure by CD) ([2]; Time 0 hr) [%] | alpha (secondary structure by CD) ([2]; Time 24 hr) [%] | beta-sheet (secondary structure by CD) ([2]; Time 24 hr) [%] | random (secondary structure by CD) ([2]; Time 24 hr) [%] | alpha (secondary structure by CD) ([2]; Time 96 hr) [%] | beta-sheet (secondary structure by CD) ([2]; Time 96 hr) [%] | random (secondary structure by CD) ([2]; Time 96 hr) [%] | Toxicity to SK—N—SH cells (MTT) ([3]; Example 1, FIGS. 2A and 2B) | Toxicity to SK—N—SH cells (MTT) ([3]; Example 2, FIGS. 6A and 6B) | Aggregates visible under the microscope in culture wells ([3]; Example 1) | Aggregates visible under the microscope in culture wells ([3]; Example 2) | Solubility [4]
Aβ1-30-NH2(DD18,19): modified Aβ1-30, amidated, Asp at positions 18 and 19 (SEQ ID NO:13) | did not form fibrils |  |  |  |  |  |  |  |  |  |  |  |  |  |  | 
Aβ1-30-NH2(EE18,19): modified Aβ1-30, amidated, Glu at positions 18 and 19 (SEQ ID NO:12) | did not form fibrils |  |  |  |  |  |  |  |  |  |  |  |  |  |  | 
Aβ1-30-NH2: first thirty residues of Aβ1-42 (SEQ ID NO:1), amidated at the C-terminus; control peptide | gradually formed fibrils over time | gradually formed fibrils over time | 5 | 37 | 58 | 8 | 36 | 56 | 7 | 49 | 44 |  |  |  |  | 
Aβ1-40: amyloid β peptide, sequence 1-40; control peptide | gradually formed fibrils over time |  |  |  |  |  |  |  |  |  |  | toxic | toxic |  |  | 
Aβ1-42: amyloid β peptide, sequence 1-42; control peptide |  |  | 9 | 36 | 55 | 9 | 40 | 51 | 5 | 55 | 40 | toxic | toxic | aggregates were visible | aggregates were visible | only partially soluble
